Source: publication doi:10.1101/2020.09.11.292599 (bioRxiv, 2020)
Like-named read-outs stand apart in the source and are kept apart here.

T1: His6-tagged 2,3-bisphosphoglycerate-independent phosphoglycerate mutase (PGAM, Slr1945) (Synechocystis sp. PCC 6803, UniProt P74507 1-532)
T1 sequence (looked up): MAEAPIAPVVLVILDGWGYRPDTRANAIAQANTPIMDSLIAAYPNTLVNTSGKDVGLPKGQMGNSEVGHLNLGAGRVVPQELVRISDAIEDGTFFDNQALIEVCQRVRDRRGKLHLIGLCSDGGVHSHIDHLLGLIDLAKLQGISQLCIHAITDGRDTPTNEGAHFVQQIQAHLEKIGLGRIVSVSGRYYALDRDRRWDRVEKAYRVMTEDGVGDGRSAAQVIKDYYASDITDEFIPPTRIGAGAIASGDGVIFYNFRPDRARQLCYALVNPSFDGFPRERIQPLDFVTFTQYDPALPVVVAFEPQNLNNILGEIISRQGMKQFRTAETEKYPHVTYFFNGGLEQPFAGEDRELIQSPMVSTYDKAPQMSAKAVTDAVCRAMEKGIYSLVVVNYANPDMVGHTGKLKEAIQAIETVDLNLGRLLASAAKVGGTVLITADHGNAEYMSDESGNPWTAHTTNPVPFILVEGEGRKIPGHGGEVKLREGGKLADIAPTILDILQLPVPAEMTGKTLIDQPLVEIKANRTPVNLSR

B1: recombinant PII, tag not stated for this experiment (natural protein, UniProt Q55247 1-112, looked up)
chain: MKKVEAIIRPFKLDEVKIALVNAGIVGMTVSEVRGFGRQKGQTERYRGSEYTVEFLQKLKIEIVVDEGQVDMVVDKLVSAARTGEIGDGKIFISPVDSVVRIRTGEKDTEAI

Tests used:
[1] = target: T2, C-terminally His8-tagged PII (UniProt Q55247 1-112); experiment: BLI
[2] = target: T2, C-terminally His8-tagged PII; experiment: BLI; remark: listed apart in the source
[3] = target: T1, His6-tagged …; experiment: BLI
[4] = target: T1, His6-tagged …; experiment: BLI; remark: listed apart in the source
[5] = target: T2, C-terminally His8-tagged PII; experiment: SPR
[6] = target: B1; experiment: SEC-MALS
SEC-MALS = target: the molecule itself; experiment: SEC-MALS

| Binder | Kd [1] | Kd [2] | Kd [3] | Kd [4] | stoichiometry N [5] | stoichiometry N [6] | stoichiometry N (SEC-MALS) |
| --- | --- | --- | --- | --- | --- | --- | --- |
| Strep-tagged PirC (Sll0944), 112 amino acid version starting at Met 53 (natural protein, Synechocystis sp. PCC 6803, UniProt P77971 53-164, looked up) MSQILDPIPNNQPSALFCCYVNATNQIQVARITNVPNWYFERVVFPGQRLVFEAVPSAQLEIHTGMMASSIISDTIPCEQLSIDPDGLAAGGFISPEKEHESEDMTSQSLVA | 14.1 ± 0.7 nM | 37.3 ± 2.5 nM | 1700 nM | 459 nM |  |  |  |
| recombinant PirC (Sll0944), 112 amino acid version, tag not stated for this experiment (natural protein, Synechocystis sp. PCC 6803, UniProt P77971 53-164, looked up) MSQILDPIPNNQPSALFCCYVNATNQIQVARITNVPNWYFERVVFPGQRLVFEAVPSAQLEIHTGMMASSIISDTIPCEQLSIDPDGLAAGGFISPEKEHESEDMTSQSLVA |  |  |  |  | ~1 PirC monomer per PII trimer | 1 PirC monomer per PII trimer | 2 |
| B1 |  |  |  |  |  |  | 3 |
